The values that follow come from patent US20220348674A1.

As usually defined, the EC50 is the concentration needed to bring the measured effect to its halfway point. A lower EC50 goes with an effect from little substance.

Assay [1] has as its target CD40 on Ramos-Blue cells (human).
Assay [2] deals with cell surface human CD40 on HEK-CD40 cells (human) (UniProt P25942). In words: flow cytometry on HEK-CD40 cells; mAb at 5 ug/ml.
Assay [3] shares this target. Nature of the assay: flow cytometry on HEK-CD40 cells; mAb at 12 ug/ml. On the technique in general: In flow cytometry, cells or beads pass a laser one at a time.
For assay [4] the target is unchanged. Nature of the assay: flow cytometry on HEK-CD40 cells; mAb at 1.7 ug/ml.
Assay [5] shares this target. In words: flow cytometry on HEK-CD40 cells; mAb at 0.02 ug/ml.
Assay [6] has the same target. In words: flow cytometry on HEK-CD40 cells; mAb at 0.06 ug/ml.
The target is the same in assay [7]. In words: flow cytometry on HEK-CD40 cells; mAb at 0.56 ug/ml.
Assay [8] shares this target. In words: flow cytometry on HEK-CD40 cells; mAb at 0.007 ug/ml.
For assay [9] the target is unchanged. In words: flow cytometry on HEK-CD40 cells; mAb at 0.78 ug/ml (so in the source).
Assay [10] shares this target. In words: flow cytometry, titration on HEK-CD40 cells, CD40 MFI, anti-human IgG secondary antibody.

CP-870,893, IgG2 isotype fully human anti-CD40 mAb (antibody), sequence (VH): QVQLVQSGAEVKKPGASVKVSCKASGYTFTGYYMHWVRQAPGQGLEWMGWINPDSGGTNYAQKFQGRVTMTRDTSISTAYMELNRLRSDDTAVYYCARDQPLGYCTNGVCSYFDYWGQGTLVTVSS
CP-870,893, IgG2 isotype fully human anti-CD40 mAb (antibody), sequence (VL): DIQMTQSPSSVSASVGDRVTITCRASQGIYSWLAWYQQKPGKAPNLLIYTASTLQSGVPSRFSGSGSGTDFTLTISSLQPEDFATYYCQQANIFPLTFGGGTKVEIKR
cell surface human CD40 on HEK-CD40 cells (human), sequence (P25942 21-277): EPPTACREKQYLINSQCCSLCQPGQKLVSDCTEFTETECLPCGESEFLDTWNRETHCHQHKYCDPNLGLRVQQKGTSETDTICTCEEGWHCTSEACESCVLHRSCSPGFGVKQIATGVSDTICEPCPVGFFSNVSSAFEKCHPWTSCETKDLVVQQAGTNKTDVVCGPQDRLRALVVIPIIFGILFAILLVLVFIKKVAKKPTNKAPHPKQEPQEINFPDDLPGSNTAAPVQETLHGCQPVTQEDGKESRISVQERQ

In turn, “APX005m, humanized anti-CD40 mAb, IgG1 isotype with S267E mutation (antibody)” came in with an EC50, w/o PDL1 (Ramos-Blue NFkB-SEAP reporter, OD630, HEK-control cells added) in assay [1] of 2.6 nM. In [1], this substance displayed an EC50, with PDL1 (Ramos-Blue NFkB-SEAP reporter, OD630, HEK-PDL1 cells added) of 2.67 nM. The MFI is 24500 in [2]; 24700 in assay [3]; 23300 in [4]; 2360 in assay [5]; 4590 in assay [6]; 18200 in assay [7]. The MFI in [8] is 1150; in assay [9], 9840. The substance further came in with a 50% effective concentration (EC50) in assay [10] of 0.28 µg/mL.

In turn, “CP-870,893, IgG2 isotype fully human anti-CD40 mAb (antibody)” gave an EC50, w/o PDL1 (Ramos-Blue NFkB-SEAP reporter, OD630, HEK-control cells added) in assay [1] of 0.15 nM. In addition, the EC50, with PDL1 (Ramos-Blue NFkB-SEAP reporter, OD630, HEK-PDL1 cells added) in assay [1] was 0.12 nM. In addition, the MFI in assay [2] is 20900; in assay [3], 23700; in assay [4] it was 14100; in assay [5] it was 635; in [6], 1530; in assay [7] it was 6790. Further, the figures for the MFI in assay [8] and in assay [9] were 271 and 3670, respectively. In assay [10], this substance had an EC50 of 1.58 µg/mL.

As to “Human IgG1 isotype control (Bioxell, Catalog BE 0297) (antibody)”, the MFI in [2] was 112; in assay [3] it was 73.7; in assay [4] it was 61.3; in assay [5] it was 40.1; in assay [6], 40.2; in assay [7], 30.7. In addition, the MFI is 28.3 in assay [8] and 32.3 in assay [9].
